Paper PMC5040716

Test system: MgaSpn-His (Streptococcus pneumoniae)
Experiment: EMSA
Details: MgaSpn EMSA: 40 mM Tris-HCl pH 7.6, 1 mM DTT, 0.4 mM EDTA, 1-2% glycerol, 50 mM NaCl, 10 mM MgCl2, 500 ug/ml BSA, 2 nM DNA, ambient, 20 min; MgaSpn footprint: …

Substance | Kd [nM]
hlyR 288-bp fragment | 50
hlyC 290-bp fragment | 75
